In PMC11371828 (Nature Communications, 2024):

Experiments:
Assay in all cases: pull-down
[1] = molecular target: T1, 6xHis-IKKβ(1-669) EE K469E (human, UniProt O14920 1-669, S177E | S181E | K469E)
T1 sequence (looked up): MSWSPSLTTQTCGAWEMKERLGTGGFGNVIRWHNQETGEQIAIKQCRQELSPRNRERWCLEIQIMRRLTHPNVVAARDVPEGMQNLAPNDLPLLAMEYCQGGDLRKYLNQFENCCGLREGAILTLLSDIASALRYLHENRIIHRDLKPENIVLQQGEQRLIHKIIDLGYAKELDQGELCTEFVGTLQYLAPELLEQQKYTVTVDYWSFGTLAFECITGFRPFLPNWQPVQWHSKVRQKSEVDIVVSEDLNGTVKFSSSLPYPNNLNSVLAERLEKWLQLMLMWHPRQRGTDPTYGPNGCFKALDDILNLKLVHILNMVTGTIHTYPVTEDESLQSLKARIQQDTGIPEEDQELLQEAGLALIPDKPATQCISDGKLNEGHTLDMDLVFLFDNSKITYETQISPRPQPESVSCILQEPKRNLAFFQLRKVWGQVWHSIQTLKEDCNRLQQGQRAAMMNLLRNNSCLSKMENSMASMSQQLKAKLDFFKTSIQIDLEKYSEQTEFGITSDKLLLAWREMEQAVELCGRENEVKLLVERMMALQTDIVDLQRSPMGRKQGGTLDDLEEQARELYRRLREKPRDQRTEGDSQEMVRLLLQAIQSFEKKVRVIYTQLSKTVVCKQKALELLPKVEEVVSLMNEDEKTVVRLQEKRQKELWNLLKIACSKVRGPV

[2] = molecular target: T2, 6xHis-IKKβ(1-669) EE K480E (human, UniProt O14920 1-669, S177E | S181E | K480E)
T2 sequence (looked up): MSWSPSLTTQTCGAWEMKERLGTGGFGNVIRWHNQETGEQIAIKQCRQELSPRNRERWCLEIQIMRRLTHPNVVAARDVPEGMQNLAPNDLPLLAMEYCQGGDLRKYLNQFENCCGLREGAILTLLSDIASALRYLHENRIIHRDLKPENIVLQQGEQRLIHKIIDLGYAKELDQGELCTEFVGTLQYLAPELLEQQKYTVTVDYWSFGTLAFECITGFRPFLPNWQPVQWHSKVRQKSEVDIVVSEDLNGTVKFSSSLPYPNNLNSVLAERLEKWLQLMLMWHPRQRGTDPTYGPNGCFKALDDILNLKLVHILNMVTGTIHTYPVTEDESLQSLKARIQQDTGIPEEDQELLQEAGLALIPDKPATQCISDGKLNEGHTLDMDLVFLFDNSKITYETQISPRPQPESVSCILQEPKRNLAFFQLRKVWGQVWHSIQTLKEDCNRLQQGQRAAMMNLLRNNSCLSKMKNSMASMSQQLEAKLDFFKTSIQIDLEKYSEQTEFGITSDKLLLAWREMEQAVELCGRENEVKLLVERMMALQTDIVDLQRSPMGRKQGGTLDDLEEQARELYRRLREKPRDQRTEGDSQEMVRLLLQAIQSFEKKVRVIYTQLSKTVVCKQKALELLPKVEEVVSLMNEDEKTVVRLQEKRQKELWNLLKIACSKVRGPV

[3] = molecular target: T3, 6xHis-IKKβ(1-669) EE M475A (human, UniProt O14920 1-669, S177E | S181E | M475A)
T3 sequence (looked up): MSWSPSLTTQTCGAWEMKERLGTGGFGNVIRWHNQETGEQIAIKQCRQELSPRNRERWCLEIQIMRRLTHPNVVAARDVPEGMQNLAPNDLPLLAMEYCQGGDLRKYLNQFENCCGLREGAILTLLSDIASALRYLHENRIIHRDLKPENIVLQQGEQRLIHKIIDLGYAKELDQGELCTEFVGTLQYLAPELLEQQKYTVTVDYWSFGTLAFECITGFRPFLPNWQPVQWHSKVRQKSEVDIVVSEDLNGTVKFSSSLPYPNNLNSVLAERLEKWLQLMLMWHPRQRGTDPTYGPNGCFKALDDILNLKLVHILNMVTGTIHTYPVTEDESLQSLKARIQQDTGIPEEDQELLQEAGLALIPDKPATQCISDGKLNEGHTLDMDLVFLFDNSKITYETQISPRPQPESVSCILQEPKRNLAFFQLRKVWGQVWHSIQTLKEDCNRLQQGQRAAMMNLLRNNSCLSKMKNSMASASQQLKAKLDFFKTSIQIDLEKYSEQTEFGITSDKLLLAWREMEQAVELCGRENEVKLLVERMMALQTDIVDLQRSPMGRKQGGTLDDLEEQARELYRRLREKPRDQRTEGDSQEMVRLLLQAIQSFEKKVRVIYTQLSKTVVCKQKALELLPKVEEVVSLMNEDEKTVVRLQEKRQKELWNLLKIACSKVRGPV

Measured: binding result

DELPYDDCVFGGQRLTL (peptide, UniProt P25963 301-317, looked up) [MBP-IκBα pep(s)]
binds: all assays above
